Biological target: PKCβII (mouse brain homogenates), P68404
Sequence (P68404 other isoform, or with tags, fused parts or gaps): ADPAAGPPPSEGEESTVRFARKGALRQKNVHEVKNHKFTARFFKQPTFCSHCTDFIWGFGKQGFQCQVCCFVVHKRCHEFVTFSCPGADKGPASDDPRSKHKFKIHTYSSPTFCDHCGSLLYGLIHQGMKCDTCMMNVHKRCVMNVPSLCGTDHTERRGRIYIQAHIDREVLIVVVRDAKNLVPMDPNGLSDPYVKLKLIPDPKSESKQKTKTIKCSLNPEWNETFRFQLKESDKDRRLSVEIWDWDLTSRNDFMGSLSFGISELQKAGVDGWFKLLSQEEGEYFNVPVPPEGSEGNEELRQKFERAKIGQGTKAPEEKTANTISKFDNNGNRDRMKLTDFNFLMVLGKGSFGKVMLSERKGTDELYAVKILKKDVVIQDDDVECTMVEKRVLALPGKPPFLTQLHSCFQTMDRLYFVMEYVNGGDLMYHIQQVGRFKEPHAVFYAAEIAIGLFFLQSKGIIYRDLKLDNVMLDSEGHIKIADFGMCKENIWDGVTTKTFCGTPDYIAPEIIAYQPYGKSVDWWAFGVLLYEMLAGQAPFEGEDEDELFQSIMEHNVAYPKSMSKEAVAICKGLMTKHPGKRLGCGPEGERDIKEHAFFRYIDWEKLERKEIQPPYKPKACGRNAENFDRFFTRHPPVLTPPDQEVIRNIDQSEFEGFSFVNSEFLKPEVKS

B1: AChE-R overexpressed in AChE-R transgenic mice (protein)
chain: EGREDAELLVTVRGGRLRGIRLKTPGGPVSAFLGIPFAEPPMGPRRFLPPEPKQPWSGVVDATTFQSVCYQYVDTLYPGFEGTEMWNPNRELSEDCLYLNVWTPYPRPTSPTPVLVWIYGGGFYSGASSLDVYDGRFLVQAERTVLVSMNYRVGAFGFLALPGSREAPGNVGLLDQRLALQWVQENVAAFGGDPTSVTLFGESAGAASVGMHLLSPPSRGLFHRAVLQSGAPNGPWATVGMGEARRRATQLAHLVGCPPGGTGGNDTELVACLRTRPAQVLVNHEWHVLPQESVFRFSFVPVVDGDFLSDTPEALINAGDFHGLQVLVGVVKDEGSYFLVYGAPGFSKDNESLISRAEFLAGVRVGVPQVSDLAAEAVVLHYTDWLHPEDPARLREALSDVVGDHNVVCPVAQLAGRLAAQGARVYAYVFEHRASTLSWPLWMGVPHGYEIEFIFGIPLDPSRNYTAEEKIFAQRLMRYWANFARTGDPNEPRDPKAPQWPPYTAGAQQYVSLDLRPLEVRRGLRAQACAFWNRFLPKLLSATGMQGPAGSAGRRGVGARQCNPSLLPLASE
For B1, the “PKC activity in brain homogenates (PKC assay kit, Upstate Biotechnology)” value was “Note the elevation of PKC activity in the different brain regions in the AChE-R transgenics as compered to FVB/N controls”.
